The results in this text go back to publication doi:10.1101/2023.09.18.558353.

pKd: −log10 of the molar value.

This assay concerns the target SARS-CoV-2 wild-type (WT) spike protein trimer (SARS-CoV-2) (UniProt P0DTC2). The assay is described as follows: SPR. (In general: SPR reads the build-up and loss of mass on a sensor chip optically.)

Usually pKd stands for the negative decadic logarithm of the Kd, by convention in mol/L. A low value points to a high Kd. The substance “LCB1 mini-binder protein (designed binder)” had a pKd of 8.91.
